Measurements published in patent US20080306007A1, “AGENTS FOR PROPHYLAXIS OR TREATMENT OF NEUROLOGICAL RELATED DISEASES AND CONDITIONS” (Newcastle Innovation Limited, priority 2007, published 2008).
Positions count from the first letter of the chain named. Numbers in names are those of the source.

What was measured:
[1] = system: cerebellar granule neurons (CGNs); test: FM4-64 synaptic vesicle recycling in transfected CGNs (Example 2); type: cell-based, rat; settings: single 50 mM KCl stimulus
Description: The effect of overexpression of dynamin constructs on synaptic vesicle recycling in CGNs was monitored using the styryl dye FM4-64. Neurons were removed from the culture medium and left to repolarise for 10 min in incubation medium (170 mM NaCl, 3.5 mM KCl, 0.4 mM KH2PO4, 20 mM TES (N-tris[hydroxy-methyl]-methyl-2-aminoethane-sulphonic acid), 5 mM NaHCO3, 5 mM glucose, 1.2 mM Na2SO4, 1.2 mM MgCl2, 1.3 mM CaCl2, pH 7.4). Neurons were then loaded with FM4-64 by evoking SV recycling using KCl stimulation medium (incubation medium supplemented with 50 mM KCl and 10 μM FM4-64, 50 mM NaCl being removed to maintain osmolarity) for 2 min. Cells were washed with incubation medium and mounted on an epifluorescence microscope (Olympus IX81). After 10 min, FM4-64 was unloaded from the cells by exposure to a 30 s pulse of stimulation medium. Transfected neurons were visualised using a Olympus Plan-Apochromat x40 objective at 480 nm excitation and a band-pass emission filter of 515-555 nm. FM4-64 unloading was monitored at 555 nm excitation and a long pass emission filter of 600 nm. The decrease in fluorescence intensity of FM4-64 loaded nerve terminals on stimulation was visualised using a Hammamatsu Orca-ERG CCD digital camera (Hammamatsu City, Japan) and Metamorph 6.3 imaging software (Molecular Devices, Downingtown, Pa.). The extent of FM4-64 unloading was quantified by normalising the fluorescence value at the start of stimulation to an arbitrary value and monitoring the total decrease in fluorescence on unloading with the KCl stimulus. The kinetics of FM4-64 unloading were estimated by normalising the start and completion of unloading to 1 and 0 respectively. Other methods employed in this study are as described in Example 1.
Synaptic vesicle turnover in neurons transfected with DynI-WT-GFP was indistinguishable from that in untransfected neurons. […] The extent of synaptic vesicle turnover was quantified by unloading the terminals with a single 50 mM KCl stimulus, which is considered mild. The total synaptic vesicle recycling pool was unaffected in CGNs transfected with DynI-WT-GFP, while after transfection with DynI-2B-GFP it was reduced. The inhibition can be solely accounted for by an effect on SV endocytosis, since there was no effect on the kinetics of dye unloading. Next, the effects of DynI-PB2-GFP and DynI-3B-GFP on SVE were examined. These two mutants were chosen since they specifically fail to bind syndapin I and endophilin I, respectively, providing a clear distinction between them.
Again, there was no effect on exocytosis, indicating an inhibition of SVE.

[2] = system: cerebellar granule neurons (CGNs); test: FM4-64 SV turnover in transfected cerebellar granule neurons (Example 1); type: cell-based, rat; settings: two sequential KCl stimuli
Description: Primary cerebellar granule neuron (CGN) cultures were prepared from 7-day old Sprague-Dawley rat pups as previously described (Tan et al. 2003). In brief, neurons were plated on poly-D-lysine coated glass coverslips at a density of 1.5×10^5 cells/coverslip. Neurons were cultured in MEM containing Earle's salts plus 10% (v/v) foetal calf serum, 25 mM KCl, 30 mM glucose, 2 mM glutamine, 100 U/ml penicillin and 100 μg/ml streptomycin at 37° C., in a humidified atmosphere of 5% CO2. The culture medium was supplemented with 10 μM cytosine arabinoside after 24 hours. Transfections were carried out using an established calcium phosphate precipitation protocol. CGNs were transiently transfected with 1.5 μg of DNA between 7-10 days in vitro and were used 48 h later.
The effect of overexpression of dynamin I-GFP constructs on SV recycling in CGNs was monitored using the styryl dye FM4-64 (Molecular Probes). The extent of FM4-64 loading was quantified by normalising the fluorescence value at the start of stimulation to an arbitrary value and monitoring the total decrease on unloading with a dual KCl stimulus. The rate of FM4-64 unloading (as a measure of SV exocytosis) was estimated by determining the time taken for individual nerve terminals to lose 50% of their dye content on stimulation of unloading. These values were normalised to untransfected nerve terminals within the same field of view. SV exocytosis and recycling was also monitored using the pH-sensitive VAMP-GFP (synaptopHluorin). Dynamin constructs linked to mCerulean rather than to GFP were used in this part of the study. CGNs were co-transfected with synaptopHluorin and either DynI^WT-mCerulean, DynI^dmA-mCerulean or Dyn^dmE-mCerulean and stimulated with 50 mM KCl for 20 sec. The evoked synaptopHluorin response was recorded at 500 nm excitation and 510-550 nm emission (mCerulean fluorescence was not detectable at this wavelength). Co-expression of dynamin I was confirmed by recording at 430 nm excitation. Responses were analysed by calculating the increased fluorescence of synaptopHluorin over baseline for individual nerve terminals and then normalising the maxima and minima to 1 and 0.
To show the key role of the phosphorylation sites by independent methods in cultured neurons their role in SV turnover in nerve terminals of CGNs transfected with dynamin I-GFP was examined. SV turnover in neurons transfected with DynI^WT-GFP was indistinguishable from that in untransfected neurons (FIG. 6a-c). […] The extent of HM4-64 accumulation and thus SV turnover, was quantified from the change in fluorescence (AF) by unloading the CGN terminals with two sequential KCl stimuli (S1 and S2) (FIG. 6j). The total SV recycling pool was reduced by approximately 70% in CGNs transfected with DynI^dmA-GFP (28±3.5% of control) and 40% with DynI^dmE-GFP (64.4±6.2% of control) (FIG. 6k). However, transfection of DynI^WT-GFP had no detectable effect (100.1±5.2% of control, FIG. 6k).

B1: DynI-3B-GFP: GFP-tagged dynamin I point mutant P793A (site 3); fails to bind endophilin I (protein)
chain: MGNRGMEDLIPLVNRLQDAFSAIGQNADLDLPQIAVVGGQSAGKSSVLENFVGRDFLPRGSGIVTRRPLVLQLVNSTTEYAEFLHCKGKKFTDFEEVRLEIEAETDRVTGTNKGISPVPINLRVYSPHVLNLTLVDLPGMTKVPVGDQPPDIEFQIRDMLMQFVTKENCLILAVSPANSDLANSDALKIAKEVDPQGQRTIGVITKLDLMDEGTDARDVLENKLLPLRRGYIGVVNRSQKDIDGKKDITAALAAERKFFLSHPSYRHLADRMGTPYLQKVLNQQLTNHIRDTLPGLRNKLQSQLLSIEKEVDEYKNFRPDDPARKTKALLQMVQQFAVDFEKRIEGSGDQIDTYELSGGARINRIFHERFPFELVKMEFDEKELRREISYAIKNIHGIRTGLFTPDLAFEATVKKQVQKLKEPSIKCVDMVVSELTSTIRKCSEKLQQYPRLREEMERIVTTHIREREGRTKEQVMLLIDIELAYMNTNHEDFIGFANAQQRSNQMNKKKTSGNQDEILVIRKGWLTINNIGIMKGGSKEYWFVLTAENLSWYKDDEEKEKKYMLSVDNLKLRDVEKGFMSSKHIFALFNTEQRNVYKDYRQLELACETQEEVDSWKASFLRAGVYPERVGDKEKASETEENGSDSFMHSMDPQLERQVETIRNLVDSYMAIVNKTVRDLMPKTIMHLMINNTKEFIFSELLANLYSCGDQNTLMEESAEQAQRRDEMLRMYHALKEALSIIGDINTTTVSTPMPPPVDDSWLQVQSVPAGRRSPTSSPTPQRRAPAVPPARAGSRGPAPGPPPAGSALGGAPPVPSRPGASPDPFGPPPQVPSRPNRAPPGVPSRSGQASPSRPESPRPPFDL
modifications: left off: large carriers
[1]
  total synaptic recycling pool (FM4-64): 56.8±4.4 % of control

B2: DynI^WT-GFP: Transfected GFP-tagged wild-type dynamin I (protein, UniProt Q05193 1-864, looked up)
Dynamin-1: MGNRGMEDLIPLVNRLQDAFSAIGQNADLDLPQIAVVGGQSAGKSSVLENFVGRDFLPRGSGIVTRRPLVLQLVNATTEYAEFLHCKGKKFTDFEEVRLEIEAETDRVTGTNKGISPVPINLRVYSPHVLNLTLVDLPGMTKVPVGDQPPDIEFQIRDMLMQFVTKENCLILAVSPANSDLANSDALKVAKEVDPQGQRTIGVITKLDLMDEGTDARDVLENKLLPLRRGYIGVVNRSQKDIDGKKDITAALAAERKFFLSHPSYRHLADRMGTPYLQKVLNQQLTNHIRDTLPGLRNKLQSQLLSIEKEVEEYKNFRPDDPARKTKALLQMVQQFAVDFEKRIEGSGDQIDTYELSGGARINRIFHERFPFELVKMEFDEKELRREISYAIKNIHGIRTGLFTPDMAFETIVKKQVKKIREPCLKCVDMVISELISTVRQCTKKLQQYPRLREEMERIVTTHIREREGRTKEQVMLLIDIELAYMNTNHEDFIGFANAQQRSNQMNKKKTSGNQDEILVIRKGWLTINNIGIMKGGSKEYWFVLTAENLSWYKDDEEKEKKYMLSVDNLKLRDVEKGFMSSKHIFALFNTEQRNVYKDYRQLELACETQEEVDSWKASFLRAGVYPERVGDKEKASETEENGSDSFMHSMDPQLERQVETIRNLVDSYMAIVNKTVRDLMPKTIMHLMINNTKEFIFSELLANLYSCGDQNTLMEESAEQAQRRDEMLRMYHALKEALSIIGDINTTTVSTPMPPPVDDSWLQVQSVPAGRRSPTSSPTPQRRAPAVPPARPGSRGPAPGPPPAGSALGGAPPVPSRPGASPDPFGPPPQVPSRPNRAPPGVPSRSGQASPSRPESPRPPFDL
modifications: GFP tag
notes: Transfected GFP-tagged wild-type dynamin I
[1]
  total synaptic recycling pool (FM4-64): 94.0±5.1 % of control
[2]
  total SV recycling pool (FM4-64): 100.1±5.2 % of control

B3: DynI-9A-GFP: GFP-tagged dynamin I R838E (site 9) mutant; abolishes amphiphysin I binding (protein, UniProt Q05193 1-864, looked up, variant R838E)
Dynamin-1: B2 Dynamin-1 with R838E
modifications: GFP tag
[1]
  total synaptic recycling pool (FM4-64): 71.9±2.7 % of control
